# B1: cOpn5: Chicken (Gallus gallus) Opn5 (neuropsin) ortholog, SEQ ID NO:1, GenBank NM_001130743.1 (protein, listed as Gallus lafayetii)
# chain: MSGMASDCNSSSQEEYLPHYVQQEDPFASKLSREADIIAGFYLTVIGILSTLGNGYVIFMSSKRKKKLRPAEIMTVNLAVCDLGISVVGKPFSIISFFSHRWIFGWMGCRWYGWAGFFFGCGSLITMTAVSLDRYLKICHLAYGTWLKRHHAFICLALIWAYATFWATVPFAGVGSYAPEPFGTSCTLDWWLAQASVAGQAFVLSILFFCLLFPTAVIVFSYVKIILKVKSSTKEVAHYDTRIQNSHILEMKLTKVAMLICAGFLIAWIPYAVVSVWSAFGQPDSVPIQFSVVPTLLAKSAAMYNPIIYQVIDCKFACCRSGGPKTLQKKSSLKESRMYTLSSHRDSAALSGTQLEV
# Columns and labels:
# [1] = system: astrocytes within the mouse S1 cortex; test: In vivo two-photon imaging (920 nm) of ATP release (GRABATP sensor) following astrocyte activation
# Experimental: The performance of cOpn5-mediated optogenetics in vivo is tested. Astrocytes represent an important population of non-excitable cells in the central nervous system, over which optogenetic tools have achieved only limited success to date^42. ATP is known as a messenger for inter-astrocyte communication; however, the real-time impacts of intracellular Ca^2+ on ATP release have not been visualized. Ultrasensitive GPCR Activation-Based ATP sensor GRABATP is used to monitor changes in extracellular ATP levels. Specifically, cOpn5 and the GRABATP sensor are expressed in the mouse S1 sensory cortex following the infusion of AAV vectors containing the GfaABC1D promoter (FIG. 6a), which is commonly used to drive gene expression in astrocytes.
# Two-photon imaging of GRABATP signals from head-fixed awake, behaving mice is performed (FIG. 6a). It is initially expected that, in addition to the 920 nm light from pulsed laser for two-photon imaging, blue light pulses would be required to stimulate ATP signals. Strikingly, the 920 nm light itself, delivers for imaging, triggered massive ATP flashes in the cOpn5- and GRABATP-expressing mice, but not in mice that expressed the ATP sensor but lacked cOpn5 expression. Individual ATP flashes typically range in diameters of 20-100 μm and lasted for ˜1 min. The flash frequency gradually increases following ˜1 min of initial quiescence and peaked at the level of ˜50 flashes per min within the imaging area (640×640 μm^2) in ˜5 min (FIG. 6b, c and FIG. 7a). Moreover, high-frequency ATP flashes also occurs in the repeated trials (FIG. 7b).
# (§1) a, Schematic diagram of the experimental setup for in vivo two-photon imaging (920 nm) of ATP release following cOpn5-mediated astrocyte activation. Images show the expression of cOpn5 (red) in astrocytes and the expression of a GRABATP sensor (green) in astrocytes within the mouse S1 cortex. Scale bar, 100 μm.
# [2] = system: Gq signaling in HEK 293T cells; test: IP1 accumulation in Opn5-expressing HEK 293T cells; format: cell-based; details: continuous light 3 min; 100 μW/mm2; 470 nm
# Experimental: (§2) Whether heterologous expression of the Opn5 orthologs from chicken, turtles, humans and mice (which share 80-90% protein sequence identity) have the capacity to mediate blue light-induced Gq signaling activation within HEK 293T cells is tested (FIG. 1a and table 7). Blue light for stimulation and the red intracellular calcium indicator Calbryte™ 630 AM dye are used to monitor the relative Ca^2+ response (FIG. 1b).
# f, YM suppressed the IP1 accumulation evoked by continuous light stimulation (3 min; 100 μW/mm^2; 470 nm) in cOpn5-expressing HEK 293T cells (Left). ***P<0.0001, *P=0.0128; Tukey's multiple comparisons test.
# [3] = system: GCaMP7b-expressing neurons in mouse S1 cortex; test: In vivo two-photon neuron calcium imaging following cOpn5-mediated astrocyte activation; details: cOpn5-mediated astrocytes activation; N=193 neurons
# Experimental: Astrocytes release ATP and other gliotransmitters also act on neuronal receptors to modulate neuron activity. Two-photon imaging of neuronal Ca^2+ signals with cOpn5-mediated astrocytes activation from head-fixed awake, behaving mice, is performed (FIG. 6e). cOpn5-expressing cells (n=406) colocalize with GFAP-staining (n=397), but not GCaMP7b-expressing neurons (FIG. 6f).
# as §1, with “e,” for “a,”, “neuron calcium imaging” for “ATP release”, “GCaMP7b” for “GRABATP sensor”
# h, Calcium events analysis of GCaMP7b-expressing neurons in 0-5 min and 15-20 min, coupled with cOpn5-mediated astrocytes activation. N=193 neurons, ****P<0.0001, Unpaired t test.
# [4] = system: Gi signaling; test: cAMP levels in Opn5-expressing HEK 293T cells after photostimulation; format: cell-based; details: without additional retinal; 10 μM forskolin preincubation
# Experimental: as §2
# f, Light has no effect on cAMP levels (10 μM forskolin preincubation) in cOpn5-expressing HEK 293T cells without additional retinal in the medium (left panel).
# [5] = system: LH GABAergic neurons of VGAT-Cre mice; test: Optogenetics and food intake assay; format: in vivo, mouse; details: 20 Hz; 5 ms/pulse; 473 nm; 0.75 mW; vs EGFP-expressing control mice
# Experimental: Finally, the utility of cOpn5-mediated optogenetics for modulating animal behavior is assessed. The lateral hypothalamus (LH) is a brain center with known functions in reward processing and feeding behaviors^54,55. cOpn5 is expressed in the LH GABAergic neurons of VGAT-Cre mice and implanted optical fibers to deliver light pulses into the LH of freely behaving mice (FIG. 8g). […] Electrophysiological recordings on LH and ZI cOpn5-expressing neurons are performed to characterize the response profiles. The injection sites and placement of optical fibers are confirmed by whole brain slices (FIG. 10a-c). […] Thus, cOpn5 is effective for rapidly, accurately, and reversibly modulating animal behavioral states.
# g, Schematic diagram of the experimental setup for optogenetics and food intake assay. cOpn5-EGFP was expressed in GABAergic neurons within the lateral hypothalamus (LH) of VGAT-Cre mice. EGFP was expressed as a control.
# h, Summary of light-induced (20 Hz; 5 ms/pulse; 473 nm; 0.75 mW output from the fiber tip), cOpn5-mediated activation of eating behaviors. ***P=0.0003; n.s., non-significant; n=6 mice; unpaired t test. Error bars indicate S.E.M.
# [6] = system: primary astrocyte cultures; test: Light-induced Ca2+ transients in cOpn5-expressing primary astrocyte cultures; format: cell-based, mouse; details: cOpn5-expressing astrocytes; Calbryte 630 AM
# Description: cOpn5 optogenetics allows spatially precise control of cellular activity. Restricting brief light stimulation (63 ms) into a subcellular region of individual cOpn5-expressing HEK 293T cell results in the immediate activation of single cell. […] The findings are extended into primary cell cultures. cOpn5 is expressed in primary astrocyte cultures prepared from the neonatal mouse brain with AAV vectors for bicistronic expression of cOpn5 and the EGFP marker protein (FIG. 5a). […] If the light stimulation (63 ms) is precisely restricted to only subcellular region of an individual cOpn5-expressing astrocyte, Ca^2+ signal propagation within the individual cell is observed (FIG. 3f). Resembling the tests in HEK 293T cells, wave-like propagation of Ca^2+ signals from the stimulated astrocyte that proceeded gradually to more distal, non-stimulated, astrocytes is observed (FIG. 3g, h).
# a, cOpn5 was expressed in cultured primary astrocytes using AAV-cOpn5-T2A-EGFP (green). Astrocyte identity was confirmed by GFAP immunostaining (red). Scale bar, 20 μm.
# b, Pseudocolor images of the baseline and peak Ca^2+ signals following light stimulation of cOpn5-expressing astrocytes. Scale bar, 20 μm.
# c, Plot of Ca^2+ signals and heat map representation of Ca^2+ signals across trials (n=25 cells).
# [7] = cOpn5- and GRABATP-expressing mice, 920 nm light
molecule,measurement,setting,value
B1,initial quiescence before flash frequency increases,[1]; cOpn5- and GRABATP-expressing mice,~1 min
same,diameter of individual ATP flashes,[1]; [7],20-100 μm
same,duration of individual ATP flashes,[1]; [7],~1 min
same,time to peak ATP flash frequency,[1]; cOpn5-expressing mice,~5 min
same,ATP flash frequency versus proinflammatory (LPS) treatment of non-cOpn5-expressing mice,"[1]; mouse, in vivo",~25 times
same,two-photon activation wavelength,[1]; pulsed laser for two-photon imaging,≥ 920 nm
same,peak ATP flash frequency,"[1]; within the imaging area (640×640 μm2), cOpn5-expressing mice",~50 flashes per min
same,light-induced increase in the level of inositol phosphate (IP1),[2],light-induced increase
same,"neuron activity, 15-20 min compared to 0-5 min",[3],significantly elevates neuron activity
same,effect of light on cAMP levels,[4],has no such effect
same,food intake on light stimulation,[5],significant increase in food intake
same,Ca2+ transients on blue light illumination,[6],~8 ΔF/F

# — patent US20250011391A1, “ULTRA LIGHT-SENSITIVE NEUROPSIN-BASED OPTOGENETIC TOOL FOR ACTIVATING G q-COUPLED SIGNALING AND/OR ACTIVATING CELLS” (GENANS BIOTECHNOLOGY CO., LTD, priority 2021, published 2025)
